{"source": "patent EP1073891B1", "about": "“METHOD OF PREDICTING RECEPTOR MODULATING ACTIVITY” (Duke University, priority 1998, dated 1999)", "key": {"[1]": {"assay": "In vivo tissue pharmacology of antiestrogen (uterus, bone, cardiovascular system)", "settings": "assayed in vivo"}, "ER": {"tested_on": "ER", "type": "cell-based"}, "MCF-7 cell xenografts": {"tested_on": "MCF-7 cell xenografts", "assay": "Growth of MCF-7 cell xenografts in A-thymic nude mice", "type": "in vivo"}, "ERα [2]": {"biological_target": "T1, ERα (Homo sapiens, UniProt P03372)", "T1 sequence (P03372 1-595)": "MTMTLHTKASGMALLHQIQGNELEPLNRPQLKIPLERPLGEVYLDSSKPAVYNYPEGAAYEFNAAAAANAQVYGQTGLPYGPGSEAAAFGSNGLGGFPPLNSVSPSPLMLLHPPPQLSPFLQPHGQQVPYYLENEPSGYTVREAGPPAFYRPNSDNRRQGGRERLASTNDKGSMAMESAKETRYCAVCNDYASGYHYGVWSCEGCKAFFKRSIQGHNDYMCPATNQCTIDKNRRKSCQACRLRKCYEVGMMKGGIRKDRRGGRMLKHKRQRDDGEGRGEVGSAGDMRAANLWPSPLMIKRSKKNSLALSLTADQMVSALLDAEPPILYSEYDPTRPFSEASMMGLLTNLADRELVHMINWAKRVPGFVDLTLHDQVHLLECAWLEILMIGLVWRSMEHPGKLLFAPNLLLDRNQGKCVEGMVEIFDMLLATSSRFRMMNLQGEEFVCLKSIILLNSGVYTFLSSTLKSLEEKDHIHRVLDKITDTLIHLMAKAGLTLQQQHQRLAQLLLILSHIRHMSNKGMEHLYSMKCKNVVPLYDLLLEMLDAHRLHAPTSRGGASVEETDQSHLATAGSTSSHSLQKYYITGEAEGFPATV", "type": "binding", "set-up": "purchased PanVera Corporation, Madison, WI", "settings": "Table 14, ERα and ERβ; progesterone 1 µM", "protocol": "Oligonucleotides corresponding to the vitellogenin ERE, biotin-[…] (forward) and biotin-[…] (reverse), were synthesized by Genosys.\nThese assays were conducted by phage ELISA.\nRes. Treat. […] Jordan, Pharmacological Rev. […] And Metab.\nBound phage were detected as described previously."}, "full length ER-α": {"biological_target": "T2, full length ER-α (Homo sapiens, UniProt P03372)", "T2 construct": "Baculovirus expressed full length ER-α; host or cells: baculovirus expression", "T2 sequence (P03372 1-595)": "T1 sequence (P03372 1-595)", "assay": "Affinity selection and phage ELISA of X7-LXXLL-X7 library on estradiol treated ER (Example 101.1)", "type": "binding", "protocol": "M13 phage-based random peptide libraries were incubated with target proteins in the wells, ER binding phage were retained while the unbound phage were washed away. Bound phage were eluted by low pH buffer, amplified in DH5αF' cells and subjected to subsequent round of selection. The selection processes were repeated 2-3 times to enrich for EB bonding phage. Individual phage were plaque purified, amplified and their binding characteristics were examined by ELISA."}, "[3]": {"biological_target": "T3, estrogen receptor α (ERα) (Homo sapiens, UniProt P03372)", "T3 construct": "The full length estrogen receptor was subcloned in frame into the EcoRI and XhoI sites of pJG4-5; expressed in transfected cells; host or cells: Saccharomyces cerevisiae EGY48", "T3 sequence (P03372 1-595)": "T1 sequence (P03372 1-595)", "assay": "LexA yeast two hybrid, β-galactosidase activity assay (Example 3)", "type": "cell-based", "excerpt": "The LexA system that we employ utilizes a bacterial DNA binding protein domain, LexA, and a bacterially derived transcriptional activation sequence, B42. Proteins or peptides of interest are fused in frame with these domains and expressed using episomal plasmids in a yeast cell. The interactions between these proteins/peptides of interest are registered by monitoring the level of the reporter gene product, β-galactosidase, by an enzymatic assay. The differences in the levels of β-galactosidase activities reflect the relative strengths of the protein interactions.\nThe yeast strains used in this study was EGY48 (MAT a trp1 his3 ura3 leu2::61exAops-LEU2) purchased from OriGeneTechnologies for yeast two hybrid analysis. This strain contains 6 LexA operators upstream of the LEU2 gene in the yeast genome and provides high sensitivity in detecting protein-protein interactions in the LexA two hybrid system. The plasmids used in this study were pEG202 (LexA-DNA binding domain), pJG4-5 (B42-activation domain), and the plasmid containing a β-galactosidase reporter, pJK103 (OriGene Technologies). The full length estrogen receptor was subcloned in frame into the EcoRI and XhoI sites of pJG4-5 to generate an ERα-B42 activation domain fusion. ERα was subcloned in the activation domain plasmid because ERα was able to autoactivate reporters when fused to the LexA DNA binding domain.\nThe peptide sequences used in this study were generated from synthetic oligos filled in by T7 Sequenase (Life Science) and subcloned into the EcoRI-XhoI sites of pEG202. The synthetic oligos were: [formula] [formula] [formula] [formula] The complementary synthetic oligo used to generate double stranded DNA was 3'XhoPrim, 5'-[…]. Each 5'-oligo was annealed to the 3'-oligo by heating to 90 °C for 15 minutes and cooled slowly to 35 °C. T7 sequenase was added and the fill-in reaction allowed to proceed at 30 °C for 30 minutes. The reaction was terminated by heat denaturing the enzyme at 65 °C for 1 hour, restriction digests were performed and the resulting DNA fragments subcloned into pEG202 to generate peptide-LexA DNA binding domain fusions.\nThe culture was diluted to ~2x10^6 cells/ml in the same media and allowed to grow at 30 °C until the cultures reached a density of ~1x10^7 cells/ml (∼4 hours). The yeast cells were pelleted by centurifugation, washed with extraction buffer (60 mM Na2HPO4, 40 mMNaH2PO4, 10 mM KCl, 1 mM MgSO4, 1mM PMSF, 7 mM 2-mercaptoethanol) and suspended in 200 µl of extraction buffer. 100 µl of acid-washed glass beads were added and cells were lysed by vigorous agitation for 10 minutes at 4 °C. Cellular debris was pelleted by centrifugation and the supernatant transferred to a clean tube. 10 µg of total cellular protein was diluted into complete Z buffer (60 mM Na2HPO4, 40 mMNaH2PO4 , 10 mM KCl, 1 mM MgSO4, 7 mM 2-mercaptoethanol) to a volume of 100 µl in a 96-well microplate. 80 µg of o-nitrophenyl-β-D-pyranoside (ONPG) in 20 µl was added to each well to initiate color development.\n10µg of each protein extract was assayed for β-galactosidase activity using o-nitrophenyl-b-D-pyranoside as substrate. Activity units are defied as 1000* Abs405/minutes/mg/protein.\nValues are in beta-galactosidase units (MOD/min/mg)"}, "full length ER": {"biological_target": "T4, full length ER (Homo sapiens, UniProt P03372)", "T4 construct": "amino terminal domain (1-184) fused to GST, and the full length ER; purchased PanVera Corporation, Madison, WI", "T4 sequence (P03372 1-595)": "T1 sequence (P03372 1-595)", "assay": "Mapping of probe binding sites, phage ELISA on directly immobilized receptor", "protocol": "Assays were conducted using the format described in Example 2.3, except that the domains were directly immobilized on the plastic surface of the well. Assays were conducted as for phage ELISA (Ex. 2.3)."}, "ERα [4]": {"biological_target": "T1, ERα", "assay": "Phage ELISA on plastic-immobilized ER, with or without estradiol, agonists or SERMs (Examples 1.3a, 1.4)", "type": "binding", "set-up": "purchased PanVera Corporation, Madison, WI", "excerpt": "ER alpha (Panvera Corp.) was immobilized on Immulon 4 plastic plates (Dynatech) for the phage affinity selection as described in patent application Fowlkes, 09/050,359. Peptide sequences obtained for binding to the unliganded (unactivated) receptor are listed below (Table 1).\nPhage expressing distinct peptide sequences were classified according to a number of different parameters.\nThe effect of agonists and SERMs on the binding of phage from each of the 5 classes described above was investigated.\nThe following fingerprints were identified (Table 6). The data are based on the relative change in binding (as determined by an increase or decrease in absorbance) compared to the unliganded receptor. The number of + or - signs indicates the degree and the direction of the change in signal; +/- indicates no significant change."}}}
{"compound": "CC/C(=C(\\c1ccccc1)c1ccc(/C=C/C(=O)O)cc1)c1ccccc1", "note": "[GW5638]", "values": [{"measurement": "activity in bone and the cardiovascular system", "setting": "[1]", "value": "functions as an estrogen"}, {"measurement": "uterotrophic activity", "setting": "[1]", "value": "does not display uterotrophic activity"}, {"measurement": "AF-1 and AF-2 agonist activity", "setting": "ER", "value": "devoid of AF-1 and AF-2 agonist activity"}, {"measurement": "inhibition of tamoxifen partial agonist activity", "setting": "ER; assayed in vitro", "value": "inhibits tamoxifen partial agonist activity under all conditions examined"}, {"measurement": "growth of MCF-7 cell xenografts", "setting": "MCF-7 cell xenografts", "value": "effectively inhibited"}]}
{"compound": "CC(=O)[C@H]1CC[C@H]2[C@@H]3CCC4=CC(=O)CC[C@]4(C)[C@H]3CC[C@]12C", "note": "[progesterone]", "values": [{"measurement": "binding pattern of the probes (fingerprint) compared with buffer", "setting": "ERα [2]", "value": "indistinguishable from that produced by buffer"}]}
{"compound": "GHEPLTLLERLLMDDKQAV [Peptide F6]", "values": [{"measurement": "affinity for ERα", "setting": "full length ER-α; affinity-selected peptide", "value": "high affinity"}, {"measurement": "Peptide Interactions with ER Alpha, beta-galactosidase units, value", "setting": "[3]; 4-hydroxy Tamoxifen", "value": 20267, "unit": "MOD/min/mg"}, {"measurement": "Peptide Interactions with ER Alpha, beta-galactosidase units, value", "setting": "[3]; Estradiol", "value": 38883, "unit": "MOD/min/mg"}, {"measurement": "Peptide Interactions with ER Alpha, beta-galactosidase units, value", "setting": "[3]; No Addition", "value": 30983, "unit": "MOD/min/mg"}, {"measurement": "Peptide Interactions with ER Alpha, beta-galactosidase units, value", "setting": "[3]; Tamoxifen Citrate", "value": 11947, "unit": "MOD/min/mg"}]}
{"compound": "SSEYCFYWDSAHCSR [α I]", "values": [{"measurement": "binding to the full length protein", "setting": "full length ER", "value": "binds only to the full length protein"}]}
{"compound": "SSNHQSRLIELLSR [ER4]", "values": [{"measurement": "binding to ligand occupied ER", "setting": "full length ER-α; agonist, partial agonist or antagonist occupied ER", "value": "binds to agonist occupied ER but not partial agonist- or antagonist-occupied ER"}]}
{"compound": "SSVTKKALTIAKDSR", "values": [{"measurement": "binding of ER in presence of estradiol", "setting": "ERα [4]", "value": "weak binders"}]}
{"compound": "SSYQWETHSDKWRSR", "values": [{"measurement": "binding of ER in presence of estradiol", "setting": "ERα [4]", "value": "weak binders"}]}
